Data taken from publication PMC7432852, “2-Ketoglutarate-Generated In Vitro Enzymatic Biosystem Facilitates Fe(II)/2-Ketoglutarate-Dependent Dioxygenase-Mediated C–H Bond Oxidation for (2S,3R,4S)-4-Hydroxyisoleucine Synthesis” (International Journal of Molecular Sciences, 2020).

Tests used:
[1] = test system: LGOX (L-glutamate oxidase); conditions: 50 mM Tris-HCl pH 7.0, 30 °C; L-Glu 0.5–20 mM
Excerpt: initial rate of 2-KG formation by HPLC, catalase present, Michaelis-Menten fit on LGOX (L-glutamate oxidase)

[2] = substrate: CC[C@H](C)[C@H](N)C(=O)O; assay: initial rate of 4-HIL formation by HPLC, Michaelis-Menten fit; format: biochemical, Bacillus thuringiensis; conditions: 50 mM Tris-HCl pH 7.0, 30 °C, co-substrate 2-KG, FeSO4, L-ascorbic acid, L-Ile 0.5–20 mM
Excerpt: (§1) initial rate of 4-HIL formation by HPLC, Michaelis-Menten fit on IDO (L-Ile dioxygenase)

[3] = substrate: O=C(O)CCC(=O)C(=O)O; assay: as above; format: biochemical, Bacillus thuringiensis; conditions: 50 mM Tris-HCl pH 7.0, 30 °C, co-substrate L-Ile, FeSO4, L-ascorbic acid, 2-KG 1–40 mM
Excerpt: as §1

Row | Molecule | Km [1] [mM] | Km [2] [mM] | Vmax [2] [µmol/min/mg] | kcat [2] [s⁻¹] | Km [3] [mM] | Vmax [3] [µmol/min/mg] | kcat [3] [s⁻¹]
1 | N[C@@H](CCC(=O)O)C(=O)O [L-Glu] | 2.65 ± 0.11 | – | – | – | – | – | –
2 | IDO (L-Ile dioxygenase) (Bacillus thuringiensis) (protein) MKMSGFSIEEKVHEFESKGFLEISNEIFLQEEENHSLLTQAQLDYYNLEDDAYGECRARSYSRYIKYVDSPDYILDNSNDYFQSKEYNYDDGGKVRQFNSINDSFLCNPLIQNIVRFDTEFAFKTNIIDKSKDLIIGLHQVRYKATKERPSFSSPIWLHKDDEPVVFLHLMNLSNTAIGGDNLIANSPREINQFISLKEPLETLVFGQKVFHAVTPLGTECSTEAFRDILLVTFSYKETK | – | 6.34 ± 0.12 | 8.99 | 4.18 ± 0.08 | 15.12 ± 0.08 | 19.8 | 9.18 ± 0.07
